Assay results taken from patent US20080267980A1 (published 2008).
Where two headings read alike, the source gives them in different places.

What was measured:
Assay in all cases: SPR
Human C3dg-biotin [1] = target: T1, Human C3dg-biotin (human, UniProt P01024 955-1303, biotin (site not stated) in the SPR experiments)
Human C3dg-biotin [2] = target: T1, Human C3dg-biotin; remark: listed apart in the source
Human C3dg-biotin [3] = target: T1, Human C3dg-biotin; remark: listed apart in the source
Human C3dg-biotin [4] = target: T1, Human C3dg-biotin; remark: listed apart in the source

T1 sequence (P01024 955-1303): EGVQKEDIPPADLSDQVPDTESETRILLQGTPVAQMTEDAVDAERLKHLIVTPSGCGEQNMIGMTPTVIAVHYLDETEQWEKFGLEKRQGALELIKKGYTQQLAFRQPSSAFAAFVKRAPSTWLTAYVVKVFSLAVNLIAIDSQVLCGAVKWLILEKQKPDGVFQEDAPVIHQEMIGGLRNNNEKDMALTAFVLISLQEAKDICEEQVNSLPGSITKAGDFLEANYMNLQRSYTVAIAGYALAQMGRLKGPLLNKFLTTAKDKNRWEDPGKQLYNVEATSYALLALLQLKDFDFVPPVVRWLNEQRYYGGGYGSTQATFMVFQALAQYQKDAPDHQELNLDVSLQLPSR

B1: CR2-CD59 (other)
chain: ISCGSPPPILNGRISYYSTPIAVGTVIRYSCSGTFRLIGEKSLLCITKDKVDGTWDKPAPKCEYFNKYSSCPEPIVPGGYKIRGSTPYRHGDSVTFACKTNFSMNGNKSVWCQANNMWGPTRLPTCVSVFPLECPALPMIHNGHHTSENVGSIAPGLSVTYSCESGYLLVGEKIINCLSSGKWSAVPPTCEEARCKSLGRFPNGKVKEPPILRVGVTANFFCDEGYRLQGPPSSRCVIAGQGVAWTKMPVCSGGGGSLQCYNCPNPTADCKTAVNCSSDFDACLITKAGLQVYNKCWKFEHCNFNDVTTRLRENELTYYCCKKDLCNFNEQLEN
Kd (Human C3dg-biotin [1]): 15.5 nM

B2: CR2-DAF (other)
chain: ISCGSPPPILNGRISYYSTPIAVGTVIRYSCSGTFRLIGEKSLLCITKDKVDGTWDKPAPKCEYFNKYSSCPEPIVPGGYKIRGSTPYRHGDSVTFACKTNFSMNGNKSVWCQANNMWGPTRLPTCVSVFPLECPALPMIHNGHHTSENVGSIAPGLSVTYSCESGYLLVGEKIINCLSSGKWSAVPPTCEEARCKSLGRFPNGKVKEPPILRVGVTANFFCDEGYRLQGPPSSRCVIAGQGVAWTKMPVCGGGSGGGGSDCGLPPDVPNAQPALEGRTSFPEDTVITYKCEESFVKIPGEKDSVICLKGSQWSDIEEFCNRSCEVPTRLNSASLKQPYITQNYFPVGTVVEYECRPGYRREPSLSPKLTCLQNLKWSTAVEFCKKKSCPNPGEIRNGQIDVPGGILFGATISFSCNTGYKLFGSTSSFCLISGSSVQWSDPLPECREIYCPAPPQIDNGIIQGERDHYGYRQSVTYACNKGFTMIGEHSIYCTV
Kd (Human C3dg-biotin [2]): 129 nM

B3: CD59-CR2 (other)
chain: LQCYNCPNPTADCKTAVNCSSDFDACLITKAGLQVYNKCWKFEHCNFNDVTTRLRENELTYYCCKKDLCNFNEQLENSSGGGGSGGGGSGGGGSISCGSPPPILNGRISYYSTPIAVGTVIRYSCSGTFRLIGEKSLLCITKDKVDGTWDKPAPKCEYFNKYSSCPEPIVPGGYKIRGSTPYRHGDSVTFACKTNFSMNGNKSVWCQANNMWGPTRLPTCVSVFPLECPALPMIHNGHHTSENVGSIAPGLSVTYSCESGYLLVGEKIINCLSSGKWSAVPPTCEEARCKSLGRFPNGKVKEPPILRVGVTANFFCDEGYRLQGPPSSRC
Kd (Human C3dg-biotin [3]): 451 nM

B4: DAF-CR2 (other)
chain: DCGLPPDVPNAQPALEGRTSFPEDTVITYKCEESFVKIPGEKDSVICLKGSQWSDIEEFCNRSCEVPTRLNSASLKQPYITQNYFPVGTVVEYECRPGYRREPSLSPKLTCLQNLKWSTAVEFCKKKSCPNPGEIRNGQIDVPGGILFGATISFSCNTGYKLFGSTSSFCLISGSSVQWSDPLPECREIYCPAPPQIDNGIIQGERDHYGYRQSVTYACNKGFTMIGEHSIYCTVNNDEGEWSGPPPECRSSGGGGSGGGGSGGGGSISCGSPPPILNGRISYYSTPIAVGTVIRYSCSGTFRLIGEKSLLCITKDKVDGTWDKPAPKCEYFNKYSSCPEPIVPGGYKIRGSTPYRHGDSVTFACKTNFSMNGNKSVWCQANNMWGPTRLPTCVSVFPLECPALPMIHNGHHTSENVGSIAPGLSVTYSCESGYLLVGEKIINCLSSGKWSAVPPTCEEARCKSLGRFPNGKVKEPPILRVGVTANFFCDEGYRLQGPPSSRCVIAGQGVAWTKMPVC
Kd (Human C3dg-biotin [4]): 2600 nM
